In patent US20250387474A1:

Tests used:
[1] = target: T1, human IL-2R beta (CD122) (human) (UniProt P14784); test: BLI (Octet)
T1 sequence (looked up): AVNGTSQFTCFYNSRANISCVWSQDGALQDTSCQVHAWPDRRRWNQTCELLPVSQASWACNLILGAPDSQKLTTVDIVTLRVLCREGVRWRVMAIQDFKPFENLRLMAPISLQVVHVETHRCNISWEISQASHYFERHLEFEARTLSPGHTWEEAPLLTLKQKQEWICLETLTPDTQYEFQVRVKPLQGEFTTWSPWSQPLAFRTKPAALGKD

[2] = target: human IL-13Rα2 (human) (UniProt Q14627); test: SPR on immobilized ligands with receptors as flow analytes using MCK, top trace marked 250 nM
[3] = target: human IL-13Rα1 (human) (UniProt P78552); test: SPR on immobilized ligands with receptors as flow analytes using MCK, top trace marked 1000 nM
[4] = target: human IL-13Rα1 (human) (UniProt P78552); test: SPR, construct captured on anti-human IgG (Fc) antibody on a CM5 chip, human receptor as analyte
[5] = target: human IL-13Rα2 (human) (UniProt Q14627); test: as above

Chain of human IL-13Rα1 (human) (P78552 22-343 limits assumed): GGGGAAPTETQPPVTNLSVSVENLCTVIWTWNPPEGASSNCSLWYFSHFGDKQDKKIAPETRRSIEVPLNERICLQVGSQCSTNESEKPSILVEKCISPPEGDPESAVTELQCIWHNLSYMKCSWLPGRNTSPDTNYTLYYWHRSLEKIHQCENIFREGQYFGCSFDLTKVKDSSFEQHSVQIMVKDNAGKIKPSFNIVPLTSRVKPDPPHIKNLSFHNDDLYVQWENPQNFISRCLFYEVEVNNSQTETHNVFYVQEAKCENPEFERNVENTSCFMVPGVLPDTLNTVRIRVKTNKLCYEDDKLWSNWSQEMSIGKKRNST
Chain of human IL-13Rα2 (human) (Q14627 27-343 limits assumed): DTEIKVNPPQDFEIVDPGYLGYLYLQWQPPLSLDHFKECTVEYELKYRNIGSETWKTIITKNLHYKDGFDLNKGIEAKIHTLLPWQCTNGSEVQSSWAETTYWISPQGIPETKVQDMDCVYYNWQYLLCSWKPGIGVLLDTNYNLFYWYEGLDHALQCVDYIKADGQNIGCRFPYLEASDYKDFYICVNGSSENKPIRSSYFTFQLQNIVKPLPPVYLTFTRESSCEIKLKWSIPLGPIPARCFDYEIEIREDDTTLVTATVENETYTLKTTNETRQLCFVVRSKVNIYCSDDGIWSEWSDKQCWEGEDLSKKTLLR

Substance	Kd [1]	Kd [2]	Kd [3]	Kd [4]	Kd [5]
VivoTag800-MDNA11	7 nM	–	–	–	–
Fc-IL13 (wild-type IL-13 with Fc tag, comparator; format not stated) (Fc fusion)	–	0.69 nM	202 nM	237 nM	0.6 nM
MDNA11 (MDNA109FEAA-Albumin)	11 nM	–	–	–	–
